Results on one protein are retold here after publication PMC12326010, “Substrate accessibility regulation of human TopIIa decatenation by cohesin” (Nature Communications, 2025).

This data set deals with the molecule itself. The data set can be described thus: single-molecule fluorescence intensity (confocal scans, optical tweezers); 2 nM TOP2α-AF555 bound at the junction of a DNA braid, 1 mM ATPγS (also four-braid substrates with ATP); 2D Gaussian fit of spot intensity, histogram of photon counts; 50 mM Tris pH 7.5, 125 mM potassium glutamate, 2.5 mM MgCl2, 0.5 mg/mL BSA.

B1: Human topoisomerase II alpha labelled with Alexa Fluor 555 (TOP2α-AF555) (enzyme, UniProt P11388 1-1531, looked up)
chain: MEVSPLQPVNENMQVNKIKKNEDAKKRLSVERIYQKKTQLEHILLRPDTYIGSVELVTQQMWVYDEDVGINYREVTFVPGLYKIFDEILVNAADNKQRDPKMSCIRVTIDPENNLISIWNNGKGIPVVEHKVEKMYVPALIFGQLLTSSNYDDDEKKVTGGRNGYGAKLCNIFSTKFTVETASREYKKMFKQTWMDNMGRAGEMELKPFNGEDYTCITFQPDLSKFKMQSLDKDIVALMVRRAYDIAGSTKDVKVFLNGNKLPVKGFRSYVDMYLKDKLDETGNSLKVIHEQVNHRWEVCLTMSEKGFQQISFVNSIATSKGGRHVDYVADQIVTKLVDVVKKKNKGGVAVKAHQVKNHMWIFVNALIENPTFDSQTKENMTLQPKSFGSTCQLSEKFIKAAIGCGIVESILNWVKFKAQVQLNKKCSAVKHNRIKGIPKLDDANDAGGRNSTECTLILTEGDSAKTLAVSGLGVVGRDKYGVFPLRGKILNVREASHKQIMENAEINNIIKIVGLQYKKNYEDEDSLKTLRYGKIMIMTDQDQDGSHIKGLLINFIHHNWPSLLRHRFLEEFITPIVKVSKNKQEMAFYSLPEFEEWKSSTPNHKKWKVKYYKGLGTSTSKEAKEYFADMKRHRIQFKYSGPEDDAAISLAFSKKQIDDRKEWLTNFMEDRRQRKLLGLPEDYLYGQTTTYLTYNDFINKELILFSNSDNERSIPSMVDGLKPGQRKVLFTCFKRNDKREVKVAQLAGSVAEMSSYHHGEMSLMMTIINLAQNFVGSNNLNLLQPIGQFGTRLHGGKDSASPRYIFTMLSSLARLLFPPKDDHTLKFLYDDNQRVEPEWYIPIIPMVLINGAEGIGTGWSCKIPNFDVREIVNNIRRLMDGEEPLPMLPSYKNFKGTIEELAPNQYVISGEVAILNSTTIEISELPVRTWTQTYKEQVLEPMLNGTEKTPPLITDYREYHTDTTVKFVVKMTEEKLAEAERVGLHKVFKLQTSLTCNSMVLFDHVGCLKKYDTVLDILRDFFELRLKYYGLRKEWLLGMLGAESAKLNNQARFILEKIDGKIIIENKPKKELIKVLIQRGYDSDPVKAWKEAQQKVPDEEENEESDNEKETEKSDSVTDSGPTFNYLLDMPLWYLTKEKKDELCRLRNEKEQELDTLKRKSPSDLWKEDLATFIEELEAVEAKEKQDEQVGLPGKGGKAKGKKTQMAEVLPSPRGQRVIPRITIEMKAEAEKKNKKKIKNENTEGSPQEDGVELEGLKQRLEKKQKREPGTKTKKQTTLAFKPIKKGKKRNPWSDSESDRSSDESNFDVPPRETEPRRAATKTKFTMDLDSDEDFSDFDEKTDDEDFVPSDASPPKTKTSPKLSNKELKPQKSVVSDLEADDVKGSVPLSSSPPATHFPDETEITNPVPKKNVTVKKTAAKSQSSTSTTGAKKRAAPKGTKRDPALNSGVSQKPDPAKTKNRRKRKPSTSDDSDSNFEKIVSKAVTSKKSKGESDDFHMDFDSAVAPRAKSVRAKKPIKYLEESDEDDLF
modifications: Alexa555 conjugated CoA attached by SFP transferase to the ybbr tag (labelling efficiency ~30% or ~70%)
notes: Human topoisomerase II alpha (TOP2α), encoded from the pLIB vector with a C-terminal 3C-ybbr-tev-strepII tag; Two preparations: ~30% labelled (Strep-II tag apparently cleaved); The dimer rows rest on the ~30% preparation; also called TOP2α-Alexa555; TopIIa; source: baculovirus, SF9 or HighFive cells, purified (StrepTrap, HiTrap Heparin, size exclusion); not shown: ybbr, C-terminal, kept; StrepII, …
In the case of B1, the “stoichiometry N” value amounted to 2.

For orientation: stoichiometry N means a count of units in the complex or per binding partner.
